Results from patent US11491212.

B1: FIXa D85N/K228N/R318Y/R338E/R403E/E410N (protein)
chain 1: not shown
chain 2: not shown
B2: FIXa Y155F/K247N/N249S/R318Y/R338E/R403E/E410N (protein)
chain 1: not shown
chain 2: not shown
B3: FIXa D104N/K106S/Y155F/K228N/K247N/N249S (protein)
chain 1: not shown
chain 2: not shown
B4: FIXa Y155F/K228N/R318Y/R338E/R403E/E410N (protein)
chain 1: not shown
chain 2: not shown
B5: FIXa Y155F/K247N/N249S/R318Y/R338E/E410N (protein)
chain 1: not shown
chain 2: not shown
B6: FIXa Y259F/K265T/Y345T (protein)
chain 1: not shown
chain 2: not shown
B7: FIXa I251S/R318Y/R338E/R403E/E410N (protein)
chain 1: not shown
chain 2: not shown
B8: FIXa R318Y/R338E/R403E/E410S (protein)
chain 1: not shown
chain 2: not shown
B9: FIXa I251S/R318Y/R338E/E410N (protein)
chain 1: not shown
chain 2: not shown
B10: FIXa K247N/N249S/R318Y/R338E/R403E/E410N (protein)
chain 1: not shown
chain 2: not shown
B11: FIXa D104N/K106S/K247N/N249S/R318Y/R338E/R403E/E410N (protein)
chain 1: not shown
chain 2: not shown
B12: FIXa K247N/N249S/R318Y/R338E/E410N (protein)
chain 1: not shown
chain 2: not shown
B13: FIXa A103N/N105S/K247N/N249S/R318Y/R338E/R403E/E410N (protein)
chain 1: not shown
chain 2: not shown
B14: FIXa Y155F/I251S/R318Y/R338E/R403E/E410N (protein)
chain 1: not shown
chain 2: not shown

Target: Factor X (FX), P00742
Sequence (P00742 whole entry, looked up): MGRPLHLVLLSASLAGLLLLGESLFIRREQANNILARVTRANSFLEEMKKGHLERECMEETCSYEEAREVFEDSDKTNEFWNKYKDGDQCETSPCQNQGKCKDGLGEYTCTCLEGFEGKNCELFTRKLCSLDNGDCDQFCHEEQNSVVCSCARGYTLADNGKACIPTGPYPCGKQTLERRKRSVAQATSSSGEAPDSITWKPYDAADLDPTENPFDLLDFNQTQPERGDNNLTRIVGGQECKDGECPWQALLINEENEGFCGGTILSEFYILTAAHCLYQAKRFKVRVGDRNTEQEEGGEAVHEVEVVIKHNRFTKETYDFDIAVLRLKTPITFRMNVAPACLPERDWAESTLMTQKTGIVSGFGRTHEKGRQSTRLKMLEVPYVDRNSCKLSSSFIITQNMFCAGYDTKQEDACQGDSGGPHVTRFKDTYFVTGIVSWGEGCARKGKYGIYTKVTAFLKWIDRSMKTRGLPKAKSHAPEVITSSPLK

B1 was tested. Which KM did it give?
The KM was 0.0393 µM.

What about the kcat (Catalytic activity of FIXa variants) of the same protein?
The kcat (Catalytic activity of FIXa variants) was 6 s⁻¹.

For B2, which KM is on record?
The KM was 0.0391 µM.

And the kcat (Catalytic activity of FIXa variants)?
Its kcat (Catalytic activity of FIXa variants) is 6.5 s⁻¹.

What about the kcat/KM of the same protein?
The kcat/KM was 1.8e+08 M⁻¹ s⁻¹.

What does the source list for B3?
KM: 0.0753 µM; kcat (Catalytic activity of FIXa variants): 4.7 s⁻¹

With B4 as the protein, how does the KM read?
The KM was 0.048 µM.

What about the kcat (Catalytic activity of FIXa variants) of the same protein?
The kcat (Catalytic activity of FIXa variants) was 9.7 s⁻¹.

What about the kcat/KM of the same protein?
The kcat/KM was 2e+08 M⁻¹ s⁻¹.

With B5 as the protein, how does the KM read?
Its KM is 0.0153 µM.

What about the kcat (Catalytic activity of FIXa variants) of the same protein?
Its kcat (Catalytic activity of FIXa variants) is 4.3 s⁻¹.

And the kcat/KM?
Its kcat/KM is 3e+08 M⁻¹ s⁻¹.

B6 was tested. Which KM did it give?
The KM was 0.0309 µM.

And the kcat (Catalytic activity of FIXa variants)?
The kcat (Catalytic activity of FIXa variants) was 1.7 s⁻¹.

What does the source list for B7?
KM: 0.0334 µM; kcat (Catalytic activity of FIXa variants): 4.8 s⁻¹

Which KM does the source give for B8 here?
The KM was 0.0351 µM.

What about the kcat (Catalytic activity of FIXa variants) of the same protein?
Its kcat (Catalytic activity of FIXa variants) is 5.8 s⁻¹.

What about the kcat/KM of the same protein?
Its kcat/KM is 1.8e+08 M⁻¹ s⁻¹.

How did the KM turn out when B9 was run?
Its KM is 0.0162 µM.

And the kcat (Catalytic activity of FIXa variants)?
The kcat (Catalytic activity of FIXa variants) was 6.2 s⁻¹.

And the kcat/KM?
Its kcat/KM is 3.8e+08 M⁻¹ s⁻¹.

How did the KM turn out when B10 was run?
The KM was 0.0392 µM.

And the kcat (Catalytic activity of FIXa variants)?
Its kcat (Catalytic activity of FIXa variants) is 5.8 s⁻¹.

For B11, which KM is on record?
The KM was 0.059 µM.

What about the kcat (Catalytic activity of FIXa variants) of the same protein?
The kcat (Catalytic activity of FIXa variants) was 5.2 s⁻¹.

Which results are given for B12?
KM: 0.0166 µM; kcat (Catalytic activity of FIXa variants): 3.8 s⁻¹

For B13, which KM is on record?
Its KM is 0.0397 µM.

And the kcat (Catalytic activity of FIXa variants)?
Its kcat (Catalytic activity of FIXa variants) is 4.1 s⁻¹.

What about the kcat/KM of the same protein?
Its kcat/KM is 1e+08 M⁻¹ s⁻¹.

For B14, which KM is on record?
The KM was 0.0433 µM.

What about the kcat (Catalytic activity of FIXa variants) of the same protein?
Its kcat (Catalytic activity of FIXa variants) is 7.2 s⁻¹.
